Data on 1 substance can be found in publication PMC10338669.

The target of this test is aSyn-MFP (alpha-synuclein with C-terminal MFP/mMaroon1, single-fusion acceptor) (UniProt P37840). The experiment in a line: FRET or BRET. (In BRET a luciferase serves as donor, and the signal depends on an acceptor being close.)

Turning to “O-aSyn (alpha-synuclein with N-terminal OFP/mCyRFP1, single-fusion donor) (from UniProt P37840 1-140) (natural protein)”, the FRET efficiency E (Ex 473 nm) was determined as 0.266 and the FRET efficiency E (Ex 532 nm) was 0.229.
